What was measured:
[1] = target: T1, Human CD3ε stalk-Fc(knob)-Avi/CD3δ stalk-Fc(hole) (human); test: SPR RAC assay (Biacore T200, 25°C); TCB captured by anti-PG antibody on CM3 chip, 200 nM human CD3ε/δ injected after 100 nM human PLAP
T1 construct: Heterodimer of CD3 delta and CD3 epsilon ectodomains fused to a human Fc domain with knob-into-hole modifications and C-terminal Avi-tag; also called human CD3ε/δ; CD3ε/δ
Procedure: (§1) SPR experiments were performed on a Biacore T200 instrument (GE Healthcare). For the immobilization. HBS-N pH 7.4 was used as a running buffer (Cytiva #BR100670). Anti-PG antibody (see Example 3) was immobilized by amine coupling (using amine coupling kit, Cytiva #BR100050) at a density of >6000 RU on a CM3 Chip (Cytiva #29104990). The anti-PG antibody stock solution was diluted to a concentration of 25 μg/mL in a 10 mM sodium acetate buffer of pH 5.0 (Cytiva #BR100351). After the immobilization the analysis was performed at 25° C., and using PBS-P+ (Cytiva #28995084) as a running and a dilution buffer. The 5 nM solutions of TCB molecule samples in PBS-P+ were captured for 30 sec at a flow rate 5 μl/min. Then a 100 nM solution of human PLAP was injected for 90 sec association time and 30 sec dissociation time at a flow rate of 8 μl/min. Thereafter, a 200 nM solution of human CD3ε/δ (see Example 3, SEQ ID NOs 24 and 25) was injected for 90 sec association time and 30 sec dissociation time at a flow rate of 8 μl/min. The regeneration of the surface followed by two 60 sec regeneration steps with a 10 mM NaOH solution. The data were analyzed with the Biacore T200 Evaluation and Excel software. For the calculation of relative active concentration (RAC) the binding report point (BRP) was used. To calculate the RAC, the target and antibody concentrations were referenced to the unstressed sample (−80° C.) as 100% comparison. For the normalization of the protein concentration, reference was made to anti-PG antibody capturing (RAC values).

[2] = target: T2, Human PLAP (soluble, as injected in SPR) (human, UniProt P05187 23-506); test: SPR RAC assay (Biacore T200, 25°C); TCB captured by anti-PG antibody on CM3 chip, 100 nM human PLAP injected
T2 construct: also called PLAP target
Procedure: as §1

[3] = target: T1, Human CD3ε stalk-Fc(knob)-Avi/CD3δ …; test: SPR single cycle kinetics (Biacore T200, 25°C); TCB captured by anti-PG antibody on CM3 chip, human CD3ε/δ as analyte
Procedure: (§2) The binding kinetics of the PLAP TCB molecules generated in Example 17 were characterized by the single cycle kinetic (SSK) assay. For this assay, again the SPR Biacore T200 was used. The immobilization was performed at 25° C. with HBS-N pH 7.4 as a running buffer (Cytiva #BR100670). The anti-PG antibody (see Example 3) was immobilized by amine coupling (using amine coupling kit, Cytiva #BR100050) at a density of >5000 RU on a CM3 Chip (Cytiva #29104990). The anti-PG antibody stock solution was diluted to a concentration of 25 μg/mL in a 10 mM sodium acetate buffer of pH 5.0 (Cytiva #BR100351). After the immobilization the analysis was performed at 25° C., and PBS-P+(Cytiva #28995084) was used as a running and a dilution buffer. The 3 nM solutions of TCB molecule samples in PBS-P+ were captured with anti-PG antibody on a CM3 sensor chip.
(§3) The derived kinetic rate constants and corresponding affinity values (equilibrium dissociation constant KD) are summarized in Table 26 for the CD3 binder and in Table 27 for the PLAP binder. The data were analyzed with the Biacore T200 Evaluation and Excel software.

[4] = target: T2, Human PLAP (soluble, as injected in SPR); test: SPR single cycle kinetics (Biacore T200, 25°C); TCB captured by anti-PG antibody on CM3 chip, human PLAP as analyte
Procedure: as §2, §3

T2 sequence (P05187 23-506 limits assumed): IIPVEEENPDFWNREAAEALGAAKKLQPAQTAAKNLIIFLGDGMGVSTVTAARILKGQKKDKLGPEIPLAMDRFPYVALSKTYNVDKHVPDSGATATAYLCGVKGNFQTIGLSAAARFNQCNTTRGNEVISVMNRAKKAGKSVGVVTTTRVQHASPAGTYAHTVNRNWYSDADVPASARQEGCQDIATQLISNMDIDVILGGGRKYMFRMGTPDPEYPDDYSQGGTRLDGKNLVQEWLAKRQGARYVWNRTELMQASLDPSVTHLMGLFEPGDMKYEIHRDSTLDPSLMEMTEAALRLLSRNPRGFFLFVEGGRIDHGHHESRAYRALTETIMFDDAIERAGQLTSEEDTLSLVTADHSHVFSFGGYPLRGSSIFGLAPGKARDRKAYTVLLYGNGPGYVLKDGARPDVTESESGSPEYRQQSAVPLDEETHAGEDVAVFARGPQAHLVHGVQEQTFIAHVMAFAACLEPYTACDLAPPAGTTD

B1: PLAP H2 CD3orig TCB (bispecific antibody, human IgG1, kappa, L234A L235A)
heavy 1: not shown
heavy 2: QVQLQESGPGLVKPSETLSLTCTVSGFSLTSYGVSWIRQPAGKGLEWIGVIWEDGSTNYHSALISRVTMSVDTSKNQFSLKLSSVTAADTAVYYCARPHYGSSYVGAMEYWGAGTTVTVSSASTKGPSVFPLAPSSKSTSGGTAALGCLVEDYFPEPVTVSWNSGALTSGVHTFPAVLQSSGLYSLSSVVTVPSSSLGTQTYICNVNHKPSNTKVDEKVEPKSCDKTHTCPPCPAPEAAGGPSVFLFPPKPKDTLMISRTPEVTCVVVDVSHEDPEVKFNWYVDGVEVHNAKTKPREEQYNSTYRVVSVLTVLHQDWLNGKEYKCKVSNKALGAPIEKTISKAKGQPREPQVCTLPPSRDELTKNQVSLSCAVKGFYPSDIAVEWESNGQPENNYKTTPPVLDSDGSFFLVSKLTVDKSRWQQGNVFSCSVMHEALHNHYTQKSLSLSP
light 1: DIQMTQSPSSLSASVGDRVTITCRASENIYSYVAWYQQKPGKAPKLLIYNAKSLASGVPSRFSGSGSGTDFTLTISSLQPEDFATYYCQHHYVSPWTFGGGTKLEIKRTVAAPSVFIFPPSDRKLKSGTASVVCLLNNFYPREAKVQWKVDNALQSGNSQESVTEQDSKDSTYSLSSTLTLSKADYEKHKVYACEVTHQGLSSPVTKSFNRGEC
light 2: EVQLLESGGGLVQPGGSLRLSCAASGFTFSTYAMNWVRQAPGKGLEWVSRIRSKYNNYATYYADSVKGRFTISRDDSKNTLYLQMNSLRAEDTAVYYCVRHGNFGNSYVSWFAYWGQGTLVTVSSASVAAPSVFIFPPSDEQLKSGTASVVCLLNNFYPREAKVQWKVDNALQSGNSQESVTEQDSKDSTYSLSSTLTLSKADYEKHKVYACEVTHQGLSSPVTKSFNRGEC
B1 was tested, and the “RAC [%] CD3 binding, stress A” value [1] was 96%, the “RAC [%] CD3 binding, stress B” value [1] was 81% and the “RAC [%] CD3 binding, unstressed” value [1] was 100%. The “RAC [%] PLAP binding, stress A” value [2] was 100%, the “RAC [%] PLAP binding, stress B” value [2] was 102% and the “RAC [%] PLAP binding, unstressed” value [2] was 100%. It also gave a Kd [3] of 6.3 nM, a koff [3] of 0.0017 s⁻¹ and a kon [3] of 269000 M⁻¹ s⁻¹. It also gave a Kd [4] of 0.0181 nM, a koff [4] of 4.45e-05 s⁻¹ and a kon [4] of 2.46e+06 M⁻¹ s⁻¹.

B2: PLAP H3 CD3orig TCB (bispecific antibody, human IgG1, kappa, L234A L235A)
heavy 1: not shown
heavy 2: QVQLQESGPGLVKPSETLSLTCTVSGFSLTSYGVSWIRQPPGKGLEWIGVIWEDGSTNYNPSLKSRVTISVDTSKNQFSLKLSSVTAADTAVYYCARPHYGSSYVGAMEYWGAGTTVTVSSASTKGPSVFPLAPSSKSTSGGTAALGCLVEDYFPEPVTVSWNSGALTSGVHTFPAVLQSSGLYSLSSVVTVPSSSLGTQTYICNVNHKPSNTKVDEKVEPKSCDKTHTCPPCPAPEAAGGPSVFLFPPKPKDTLMISRTPEVTCVVVDVSHEDPEVKFNWYVDGVEVHNAKTKPREEQYNSTYRVVSVLTVLHQDWLNGKEYKCKVSNKALGAPIEKTISKAKGQPREPQVCTLPPSRDELTKNQVSLSCAVKGFYPSDIAVEWESNGQPENNYKTTPPVLDSDGSFFLVSKLTVDKSRWQQGNVFSCSVMHEALHNHYTQKSLSLSP
light 1: DIQMTQSPSSLSASVGDRVTITCRASENIYSYVAWYQQKPGKAPKLLIYNAKSLASGVPSRFSGSGSGTDFTLTISSLQPEDFATYYCQHHYVSPWTFGGGTKLEIKRTVAAPSVFIFPPSDRKLKSGTASVVCLLNNFYPREAKVQWKVDNALQSGNSQESVTEQDSKDSTYSLSSTLTLSKADYEKHKVYACEVTHQGLSSPVTKSFNRGEC
light 2: EVQLLESGGGLVQPGGSLRLSCAASGFTFSTYAMNWVRQAPGKGLEWVSRIRSKYNNYATYYADSVKGRFTISRDDSKNTLYLQMNSLRAEDTAVYYCVRHGNFGNSYVSWFAYWGQGTLVTVSSASVAAPSVFIFPPSDEQLKSGTASVVCLLNNFYPREAKVQWKVDNALQSGNSQESVTEQDSKDSTYSLSSTLTLSKADYEKHKVYACEVTHQGLSSPVTKSFNRGEC
With B2 the “RAC [%] CD3 binding, stress A” value [1] was 97%, the “RAC [%] CD3 binding, stress B” value [1] was 82% and the “RAC [%] CD3 binding, unstressed” value [1] was 100%. For the same binder, the “RAC [%] PLAP binding, stress A” value [2] was 99%, the “RAC [%] PLAP binding, stress B” value [2] was 100% and the “RAC [%] PLAP binding, unstressed” value [2] was 100%. For the same binder, the Kd [3] was 6.3 nM, the koff [3] was 0.00167 s⁻¹ and the kon [3] was 267000 M⁻¹ s⁻¹. It also gave a Kd [4] of 0.009 nM, a koff [4] of 3.87e-05 s⁻¹ and a kon [4] of 4.32e+06 M⁻¹ s⁻¹.

B3: PLAP H3 CD3opt TCB (bispecific antibody, human IgG1, kappa, L234A L235A)
heavy 1: not shown
heavy 2: QVQLQESGPGLVKPSETLSLTCTVSGFSLTSYGVSWIRQPPGKGLEWIGVIWEDGSTNYNPSLKSRVTISVDTSKNQFSLKLSSVTAADTAVYYCARPHYGSSYVGAMEYWGAGTTVTVSSASTKGPSVFPLAPSSKSTSGGTAALGCLVEDYFPEPVTVSWNSGALTSGVHTFPAVLQSSGLYSLSSVVTVPSSSLGTQTYICNVNHKPSNTKVDEKVEPKSCDKTHTCPPCPAPEAAGGPSVFLFPPKPKDTLMISRTPEVTCVVVDVSHEDPEVKFNWYVDGVEVHNAKTKPREEQYNSTYRVVSVLTVLHQDWLNGKEYKCKVSNKALGAPIEKTISKAKGQPREPQVCTLPPSRDELTKNQVSLSCAVKGFYPSDIAVEWESNGQPENNYKTTPPVLDSDGSFFLVSKLTVDKSRWQQGNVFSCSVMHEALHNHYTQKSLSLSP
light 1: DIQMTQSPSSLSASVGDRVTITCRASENIYSYVAWYQQKPGKAPKLLIYNAKSLASGVPSRFSGSGSGTDFTLTISSLQPEDFATYYCQHHYVSPWTFGGGTKLEIKRTVAAPSVFIFPPSDRKLKSGTASVVCLLNNFYPREAKVQWKVDNALQSGNSQESVTEQDSKDSTYSLSSTLTLSKADYEKHKVYACEVTHQGLSSPVTKSFNRGEC
light 2: EVQLLESGGGLVQPGGSLRLSCAASGFQFSSYAMNWVRQAPGKGLEWVSRIRSKYNNYATYYADSVKGRFTISRDDSKNTLYLQMNSLRAEDTAVYYCVRHTTFPSSYVSYYGYWGQGTLVTVSSASVAAPSVFIFPPSDEQLKSGTASVVCLLNNFYPREAKVQWKVDNALQSGNSQESVTEQDSKDSTYSLSSTLTLSKADYEKHKVYACEVTHQGLSSPVTKSFNRGEC
notes: 2+1 IgG CrossFab, inverted
In the case of B3, the “RAC [%] CD3 binding, stress A” value [1] is reported as 98%, the “RAC [%] CD3 binding, stress B” value [1] is reported as 95% and the “RAC [%] CD3 binding, unstressed” value [1] is reported as 100%. For the same binder, the “RAC [%] PLAP binding, stress A” value [2] was 100%, the “RAC [%] PLAP binding, stress B” value [2] was 101% and the “RAC [%] PLAP binding, unstressed” value [2] was 100%. The Kd [3] was 2.8 nM, the koff [3] was 0.0136 s⁻¹ and the kon [3] was 4.79e+06 M⁻¹ s⁻¹. It also gave a Kd [4] of 0.0097 nM, a koff [4] of 3.99e-05 s⁻¹ and a kon [4] of 4.12e+06 M⁻¹ s⁻¹.

B4: PLAP H4 CD3orig TCB (bispecific antibody, human IgG1, kappa, L234A L235A)
heavy 1: not shown
heavy 2: QVQLQESGPGLVKPSETLSLTCTVSGGSITSYGVSWIRQPPGKGLEWIGVIWEDGSTNYHSALISRVTISVDTSKNQFSLKLSSVTAADTAVYYCARPHYGSSYVGAMEYWGAGTTVTVSSASTKGPSVFPLAPSSKSTSGGTAALGCLVEDYFPEPVTVSWNSGALTSGVHTFPAVLQSSGLYSLSSVVTVPSSSLGTQTYICNVNHKPSNTKVDEKVEPKSCDKTHTCPPCPAPEAAGGPSVFLFPPKPKDTLMISRTPEVTCVVVDVSHEDPEVKFNWYVDGVEVHNAKTKPREEQYNSTYRVVSVLTVLHQDWLNGKEYKCKVSNKALGAPIEKTISKAKGQPREPQVCTLPPSRDELTKNQVSLSCAVKGFYPSDIAVEWESNGQPENNYKTTPPVLDSDGSFFLVSKLTVDKSRWQQGNVFSCSVMHEALHNHYTQKSLSLSP
light 1: DIQMTQSPSSLSASVGDRVTITCRASENIYSYVAWYQQKPGKAPKLLIYNAKSLASGVPSRFSGSGSGTDFTLTISSLQPEDFATYYCQHHYVSPWTFGGGTKLEIKRTVAAPSVFIFPPSDRKLKSGTASVVCLLNNFYPREAKVQWKVDNALQSGNSQESVTEQDSKDSTYSLSSTLTLSKADYEKHKVYACEVTHQGLSSPVTKSFNRGEC
light 2: EVQLLESGGGLVQPGGSLRLSCAASGFTFSTYAMNWVRQAPGKGLEWVSRIRSKYNNYATYYADSVKGRFTISRDDSKNTLYLQMNSLRAEDTAVYYCVRHGNFGNSYVSWFAYWGQGTLVTVSSASVAAPSVFIFPPSDEQLKSGTASVVCLLNNFYPREAKVQWKVDNALQSGNSQESVTEQDSKDSTYSLSSTLTLSKADYEKHKVYACEVTHQGLSSPVTKSFNRGEC
In the case of B4, the “RAC [%] CD3 binding, stress A” value [1] is reported as 97%, the “RAC [%] CD3 binding, stress B” value [1] is reported as 78% and the “RAC [%] CD3 binding, unstressed” value [1] is reported as 100%. The “RAC [%] PLAP binding, stress A” value [2] was 99%, the “RAC [%] PLAP binding, stress B” value [2] was 103% and the “RAC [%] PLAP binding, unstressed” value [2] was 100%. For the same binder, the Kd [3] was 5.7 nM, the koff [3] was 0.00167 s⁻¹ and the kon [3] was 292000 M⁻¹ s⁻¹. It also gave a Kd [4] of 0.0496 nM, a koff [4] of 8.91e-05 s⁻¹ and a kon [4] of 1.8e+06 M⁻¹ s⁻¹.

Reference: US20240018240A1 (Hoffmann-La Roche, published 2024)
